In the domain aggregation screens of Martell et al. (2025):

Experiment: soluble fraction after stress (log2 fold change); higher = more stays soluble; pooled small domains, quantitative proteomics
Conditions: stress: 50 degC
In short: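 Quantitative proteomics served as the high-throughput read-out for pooled custom libraries of small protein domains. Each was stressed at 50°C. Aggregation propensity is expressed as the base-two log fold change in soluble protein after stress. A higher value means a larger share of the protein remains in solution.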

Sequence | soluble fraction (log2)
HMYESAMSDLHARIMSSDDPHGEIYKMLTQSGPEAKYIQDMYNETSIDRGLHPDDDFEDIIDAMVAELDD | -0.479
HMGRFPSLTPVVIDALTAQYREHPGWTVQLHVDNLRVVLAANQTPLPSYPTIRRYLLAQGMRRQTRP | -0.426
HMAARKDLIAGEDAEGRLDAWLAAALDGEFSRNRVKALIEQGAVAINDVAVTEPKRKIRPGDRLSIVLPEP | 0.339
HMEGTAAAVALKGLMEQSGVDLREVMAAVESRGYYPKGTPFENYDPAFVSGVLVGAWDQVYKMILDQRPIP | -0.217
HMKNENSLLVSRLAEEKIINRAKLVLMEYLKLSEPQAHRYIEKQAMDLQISRAEVAARVLETYE | -0.0477
HMQTFNADDIEPIIKEILQENPKAISDFLTGNENVVKFLLGQVMKNTKGKANPKVIEELLINQLRELNN | 0.00183
HMTEEVIIQNYIGKNFNDVRDELEAKGITVDEPNMKYSDEFKENTIMAQSIKPGQPLKPGGFNSIKFDVS | 0.211
HMPALATKDSVLDGRAEVVSYVRDTSVFYLRVRVPQKQGYRSRRIDGVSTLPEAITKALDTYMDLGT | -2.57
HMDGRSLSHATLEEIRIRAVQRVEAGESPEVVVKALGFSRPRIYEWLALYREGGLEALRAKPV | -0.505
HMTDDFAGRFNELLIHNQETAVTAATRLEVSPAVITKWRQGKSIPSGEYIKRIVETYHVSADYLLGVIDTP | -0.445
HMIPEGKWMEDPISEGQIKFIETLIKQAIDSGQDALGAEAKQYLSSGEATKGNASSMIDKLKDAL | 0.243
HMKDMKISTQNILKELATNYPDQTAFRKNVIESTAKSMGYTGKDFYPMLTAETRVKIGTYDLSALLQTV | -0.178
HMPAVVEFDVKPRGEVLVDGIWYGRIPELREVELRPGRHHLRVQNAGHPSLDLVVTLEPGERMTVTHTFA | -0.102
HMSKQQVRSILDDIPNIGETRRKALMRQFQSLEKIREASVGQLREVDGMNEKAAQSVYQFFHK | -0.0486
HMHLKRQEAINLGAYLLGAELRIHRLSLEELGSERIDEMLAAINYKTLDDLLADIGLGNRPARFVARQLG | -1.53
HMLFQGDTPAENIILEILSKNGTTASDSIIKQSGLSVSDFNQAATMLEIKGLISNNGGNIWSL | 0.0636
HMEFENIEQRKQYWSDLYRELKAGQDAYAKELKKGTEGYTQDELDILKEFTDEAKKQMEAAGVEATDEFAS | -0.187
HMGDTISVPAVRTLAYNKAMDILNAEGLKGIVADSVYDNHTAPGTVIEQNPKAGTIVKEGREVFLTIHA | 0.103
HMGYPGLGSIGSKPLGDLLFQSKLFVKTKREFAEFKMANNNIVWGRRTQYLVRNYPLSVMEVFL | -0.0279
HMNAIYKFVLGMIGKRSGVVTTLPSKKQVEFQANMLAEKFMQNGIDPNALKSPEQVKNVLANIDQ | -0.737
HMAEMLENQLKHAKSKQEANEYIAAAIGGVSDDDPDKEYLVAAYNEISKEFHHSSAYHRLPDT | -0.0511
HMDRNIVYSDFIRSVNQGQVSEVLVQGDNIRGRYLNGKVFQTFAPKDPSLISTLRNKGVRISAEPA | 0.113
HMILNNAKINTELNSLAEFTQRSLDSNTSEIGFYDYKKISYIASFATMKTTNWNVIIRAPINEFMGTVN | 0.101
HMSQIQIKLDQAIMQLPEKQRFVFMLRYFEELPYEKIAQITETSIGGAKANFHQALKKMQEIIQ | -2.96
HMAPVTPEERAQAMEEYKAMVTIEGYTPPKNIIEQNYKRGLWSETMLNMAVTKGAITEAEKLEIMN | 0.124
HMSKFSDTLVYLRKRAGFSQQELADKMEVSRSLVGMYESGQRMPSYEMLEALADIFNVNIDFLTGH | -0.418

Sequence | soluble fraction (log2)
HMTGIRVYPNPTSSELRFSVATDAALYDATGARLRVVRGSDMMDIRDLASGTYYVRFADGSTQSVVVT | -0.198
HMDKINQEAIEDEAGLWLAKIDGRQLAQEEVRELIAWMRRSDFHREYLITLARQWDGMAALNKLATLFP | -0.976
HMEITTLTGVLGAGRLDSALAAALPQYSRARIQALISDAALRINGQVVADAGSKKMSGQTFELNIPAPVP | -0.31
HMINLVPFELKFITAQVLDDIIKKIGINADTIILDINPKKIWVYAGEQELSDIQNIVKNVDVEDNI | -0.443
HMATSLTEQEKLIFGLLKKQSPIELSSLKEQAGLSNKKWDKAIKGLSTQQLAKVTKTENGLFVHLLQ | 0.148
HMKNNITFSEFLHEVDNGRVIKVNIQGNNITGILADGKSFNTYTPNDPSLIEKLTSKGVSISATPI | 0.0489
HMVEREYRLEVPPEAEGKRLDQFLVNQPVQLSRSQVQHLIQNGLVLVNAKTRRSSYRVHTGDIIEMQVPA | 0.327
HMSLETRRYQLPRTDAQTASGLLRSLSGLPGVREVNLSGEGVAYLKVDSKGFDEQNVIKLLAGE | 0.307
HMKLTTRQTEIINIVKAEQPISGEKIAQNLGLSRATLRNDLSILTMTGLLDAKPKVGYFYTGQ | -0.447
HMESILDDFPGLGEKRKKALLEHFGSISKIKAATVGQLREVDGIGFETAAALREFLDANFPA | 0.158
HMVEMIGLQMVGKSGIASTVLRPSGKVRIDGVVYDAVSEDGFIEKGQAVKVLRYETGQVYVEKL | -0.254
HMEDAFLQRLISIIEANLSNVDFNVKMLAEQLNMSQPTLYRKVKQRSELSVIDMIRSIRILSLIHISEPTR | -0.988
HMRPIWVQLADDFRHRIVSGQWPPGSKIPSVRELAAETGVNPNTVQRALGALDGEGLTATERTAGRFVTT | -0.0768
HMGWEDLVGKTAVVKVALAPVGMVFFRGEFWSAISETGRIEPGEEVTISRIDGLKLYVTKKRIM | -0.607
HMKNANGYGSITKLKGNRRKPYMVRITVGRDENGFPIRKVLGYYSSKANAVAALSDYNREPYDI | -0.667
HMYVTGSAIRRLREKRKLTQAQLAAALSVSDKTVSKWETARGLPDITLLEPLARALQVSVPELLSGEEV | -0.255
HMPEIFYRKIHRTDHDQIALDAEMIRLLIAIDEKKSLSQIAAEVQMEPMALKKNLGKLIQLGLVEPIK | 0.137
HMLMKPQKTRDVLRYLKSIGWVRLRGGQGSHEIWGLPDGSIRAVIPAGHREISAGVLMQLKRAGVDVPTQW | -0.557
HMYINVQNARTIASFRSSLWRMHRDFTNQGYITADGLKTFLEMGKLYEDAGGNDIYHSKLLPEITALEIKY | -0.76
HMVTKQKKLVLTIIERSHGHLSAEEIFFRAREEMPNIALGTVYRNLNSLTEEGIVRRITLPGTSDRFDT | -2.79
HMPAEGWEASGDTWRYRQKDGSYITNAWVQDTDGKWYYFDESSLMVRNQTTSDGYYVGEDGVWTET | -0.395
HMTNPPTPADTLFNTVRGVLQSILKSPMKDTEVASALNVSKAQARSWLQRLSDEGLIEKRKNPTAYVL | -0.238
HMAPQAETLLRQVMALPSKDRAVLYLHYYEGFSTREVGDMLHISQSAVTTRLLRARKKLKEIL | 0.0889
HMAVTEVKTTAVVNMRSSDSEKADKLGKAQIGDTFRVLEQRANGWTKLTDGTQEFFIKSEYLEAIA | 0.0956
HMAGITLHAEEGRVRIRSQSEGLVKVLDAMGREQASWPLRSKGWWFFLTEGWAPGTYFVKTESGETQRFLV | 0.0535
HMVDYYEILGVSPDASRKDIENAWRKKMREAHPDMGGSEDKAQLLNEAHKVLSDESARAEYDASR | 0.103

Sequence | soluble fraction (log2)
HMLSLGIMEADMLKTGKHTISGISKATPEQRQKIDSDIEELKKKYPEKNITSKVENDNLIVESGVTAP | 0.278
HMAAYRLIPLGNSNKDFETYQEAIQYMRDKLDESSKAFEEGKQNWVYSGRVYGVPWSDGRTTFTVDLVPKV | 0.164
HMEQIFTELIMDGRVLGENLHRMGVDETWLLRQLRQQGYHSAREVFLAVADANKQVAVYPVS | -0.308
HMSINQTIEGKKQGYWIIYGNMRNLQEYLSNEVIEEGQFKNSRKEGVWRKYFPGGQMKSEITYINGRP | -0.309
HMQGEDEILKIHEALEELAQIDARLVRVVEMRYFVGLSNQEIADSLGVTTRTVERDWEKARTFLFNALHP | -1.4
HMLKPVVLLGARGLTDAVEKEVERALDEHGLIKIHVPSDDREERDEIYTTLADKLNAARIQAIGKMLVLW | -0.162
HMHSEISGGSKDPFRFMPHLGVEDIHAETDRLSGSGVEFIREPDQESWGGWVATFKDPDGNILQLLQL | 0.25
HMDDINVSNSKNIVPNVTGHTGSKAIPVLENLGLDVQYSGFGKVTNQSIPAGTRFKKGETIYLMLE | 0.0979
HMDGTVRGKTTFQELLDWGVPQERIEAVLGGPIPAPGVVIKDYVTAQGKEFSAVRDALQAEVDAVLK | 0.232
HMGDLEEAVKDFSEAIRLNDSWAEAYANRAVVYAEQGDAAQSDQDAEKARLLGVDQNRLNEMLNAVNS | 0.0258
HMLKTADAIASVLLTRIQAGEFSAGRLPAERALSEAFSTTRITLREALGKLEAQGMIYRELRRGWFIA | -1.76
HMNMRVLSEQPNKKSYQDGNLRLKVFGASFKKSDILNEALNQARVEETGLQIPKLLEVKQIDGQWTIVTE | -0.0363
HMVGKGASIILDRVNLPQYLEKFNEDGFDTIESLKNLNEIDLKEMGVKKGHIRVILNYLHEEY | -0.501
HMKELVEDFASRISNARQSKGWNQSELAKRMAETVNVVKSAESGKSPTDSVIKKLERVLGIILM | -0.591
HMGPWTETAAKGDAVSKRMLITWLQENADAEFLAAQKLTGQATSVAKRVTKDQLVELYLSVTTAA | -0.53
HMKFGEQIKERRQELDLTQAEVAEKLFVTRQAVSNWEHNKTYPDLNMLVKISNVYQISLDSLLR | -1.23
HMTNEWRKILSNLNGKYQIVMELFYVDGFSTKEIARMLHITEVNVRSRMVRGRKQLEQILTVR | -0.15
HMSGRPPTYTAEERSAVIAAALSRPADLGLPFASWTLDRLVAYLGEKGIGMKRSRMSEVLLAEGLKW | -1.25
HMEATEFYLEDLTGQMYNDVVNDEKYAGKIVFEKEEVQSDGEEAIGQILNQRPAGNMNVRIGTTVTLVVNA | -0.0405
HMEAPNELLVPEGARPARADRVLAAAFPEHSRTALQRAFDAGLVRRANLVLSRDTAVAGGDRIAFSLPAV | -0.00557
HMNDIDKFVAALVDQDTMAGTNRAFDENDIQTMKNMSSIEDVKQYAVANGLSSGKVNNALISAGL | 0.156
HMPVAPTYALTVKTDPPSANVRLLNSPTPYQPGVRLPSGNYDIEVTQSGYATRKESVRIADRDVALNIAL | 0.163
HMNPETIHNDYKAFIKFAFSGLSYYSKVWNQNREMITPGLLETLWQKYRHLSIGEIETILEKIIKEG | -1.88
HMQISDSASVKTVVAEAIAANPKAVADFMNGKDTATRYLVGQVMKITKGQAKPELVNQLVLESLAELKEK | 0.335
